Source: the DeepSol protein solubility set

Assay: soluble on expression in E. coli; label from the status in PepcDB or PDB records

| Sequence | soluble on expression in E. coli |
| --- | --- |
| MTASLMNTGKKNPFRDTQQGEYGNGDRNDWVMQASCRNGDPDALFVRGAEQRRAAAICRQCPVMIQCRADALDNKVEFGVWGGLTERQRRAILRKNPHVDSWEQFFAQGGELLGM | not soluble |
| MSQEDLELFQQMMGDVKTITHDTVELKKAHQVTEAQLAKREAAVSLADHDPEALSIDHAPMLKPDDMLEFKRDGVQDGVYRKLRLGKYPIQARLDLHRKTLKEARSEVIQFIRQCMAMDIRTLLIVHGRGERSTPPALMKSFVSHWLTQISEVQCAHSAQRLHGGTGAVYVLLRKSAEKKAENRERHQKRLG | not soluble |
| MQQPEQYCRFLCLVAHEFFHLWNIKRIRPQAFEVFDYDSENYTTSLWFVEGVTSYFDQLIPLWAGLFDAPTYLKLLSDSLNRYFHTPGRFVQSLSAASFDAWIKLYRPDENSINSQMSYYLKGELVALEHHHHHH | soluble |
| MGSDKIHHHHHHMTALFQQLPSVDKILKTPQGLQLITEFGHTAVVATCRELLTQARQFIKKNNQLPEYFSNFDRTFLEIHSHLQKQNQVQIKAVHNLTGTVLHTNLGRALWSEAAQQAALSAMQKNVSLEYDLDEGKRSHRDNYISELLCKLTGAEAACIVNNNAAAVLLMLATFAQGKEVIISRGELIEIGGAFRIPDIMEQAGCHLVEVGTTNRTHLKDYRNAITENTAFLMKVHSSNYQICGFTSSVSEEELTELGQEMNVPVVTDLGSGALVDLSQYGLPKEPTVQEKIAQGVDLVSFSGDKLLGGVQAGIIVGKKEWIEQLQAHPLKRVLRCDKVILAGLEATLRLYLNPEKLTEKLPTLRLLTQPLKQLKINAMRLKERLESRLNSQFELQIEASQAQIGSGSQPMERIPSVAVTIAEKTNAKLSALSARFKQLSQPIIGRMENGKIWLDLRSLADIETLLNTLDEL | not soluble |
| MEVEYMNFNELNLSDNILNAIRNKGFEKPTDIQMKVIPLFLNDEYNIVAQARTGSGKTASFAIPLIELVNENNGIEAIILTPTRELAIQVADEIESLKGNKNLKIAKIYGGKAIYPQIKALKNANIVVGTPGRILDHINRGTLNLKNVKYFILDEADEMLNMGFIKDVEKILNACNKDKRILLFSATMPREILNLAKKYMGDYSFIKAKINANIEQSYVEVNENERFEALCRLLKNKEFYGLVFCKTKRDTKELASMLRDIGFKAGAIHGDLSQSQREKVIRLFKQKKIRILIATDVMSRGIDVNDLNCVINYHLPQNPESYMHRIGRTGRAGKKGKAISIINRREYKKLRYIERAMKLKIKKLKFG | soluble |
| GLLAIFIVFAISWGALVEITPLIFQKQTTESVENLRVYTPLEMEGRDIYIREGCNVCHSQMVRPFRSETERYGHYSVAGESVWEHPFLWGSKRTGPDLARVGGRYSDEWHRVHLLDPRELVPESNMPGFPWLAENVLDGKLTQKKLEVFRDQFGVPYEDETIANAAKEVEGKTEMDAIIAYLQSLGH | not soluble |
| MGSDKIHHHHHHMGTAKGNITNWTQYNQVLTQRGSLTFWMDDAAIKHWYNQHPSGRQGRSNTYSDSAISTALMIKGVFKLPLRALYGFINSLFRLMDVDLKSPDYSCISKRAKTVEVNYRLRSKGPARHILIDATGLKVFGEGEWKIRKHGKEKRRIWRKMHLAVDADTREIVSAVASLDNVHNSEVIPTLINPLRCKIKQVSADGAYDTKHCYAVLQRKGITAIIPSRKNAGYRRGEQPRNEAVDALKERSVSLVEA | not soluble |
| MATKLTPKQKAQLDELSMSEKIAILLIQVGEDTTGEILRHLDIDSITEISKQIVQLNGTDKQIGAAVLEEFFAIFQSNQYINTGGLEYARELLTRTLGSEEAKKVMDKLTKSLQTQKNFAYLGKIKPQQLADFIINEHPQTIALILAHMEAPNAAETLSYFPDEMKAEISIRMANLGEISPQVVKRVSTVLENKLESLTSYKIEVGGLRAVAEIFNRLGQKSAKTTLARIESVDNKLAGAIKEMMFTFEDIVKLDNFAIREILKVADKKDLSLALKTSTKDLTDKFLNNMSSRAAEQFVEEMQYLGAVKIKDVDVAQRKIIEIVQSLQEKGVIQTGEEEDVIE | not soluble |
| MSLRIDHSGSCVWLKMQKPRFSFAVLLPSETMRRQFTRNTSNMKTELTLLEQTLTLHRFPKRNNETLQAWDAGDEYLIQHVEQLALPESSHIVIINDHFGTLSCWFSQKHKVSMMSDSYIAHQATQANLQQNQRPPVQLLTTLDPVPNDASVVLLQLPKSNRHLVWILSQLRKALSPNIPIIAVNKAKEIHTSTLNLFEKHLGPTTTSLAWKKHRLVFSSATVNPANEVNPECGWSIEPYAITLTNLPNVYSGESLDLGSRFILEHLPADPTLEDFIDLGCGNGVLSVRLGQLNPQAKITCVDESFMAIASAQKNLHDNLGKRDIHCIANNCLDGFPAHSSSMIVCNPPFHQQQTITDHIAWQMFCDSKHVLKKGGKLWVIGNRHLGYDVKLARLFGKSHVRVIANNSKFVILQAIKSEGHHHHHH | not soluble |
| MGSDKIHHHHHHMALKDYAIEKEKVKKFLQEFYYENELGKKQFKYGTQLVHLAHREQVALYVDLDDIAEDDPELVDSICENAKRYSRLFGDVVQELLPEYKEKEVVNKDVLDVYIEHRLMMEQRSRDPGAVRNPQNQYPSELMRRFELYFRGPSSSKPRVIREVRADSVGKLLTVRGIVTRVSEVKPRMVVATYTCDQCGAETYQPIQSPTFMPLIMCPSQECQTNRSGGRLYLQTRGSKFVKFQEMKIQEHSDQVPVGNIPRSITVVLEGENTRIAQPGDHVSVTGIFLPVLRTGFQQMAQGLLSETYLEAHWIVKMTKSDDDVSGAGELSSEELKQIAEEDFYEKLAASIAPEIYGHEDVKKALLLLLVGGVDQSPQGMKIRGNIHICLMGDPGVAKSQLLSYIDRLAPRSQYTTGRGSSGVGLTAAVLRDSVSGELTLEGGALVLADQGVCCIDEFDKMAEADRTAIHEVMEQQTISIAKAGILTTLNARCSILAAANPAYGRYNPRRSLEQNVQLPAALLSRFDLLWLIQDRPDRDNDLRLAQHITYVHQHSRQPPAQFEPLDMKLMRRYIAMCHERQPTVPESLADYITAAYVEMRREARASKDATYTSARTLLAILRLSTALARLRMVDIVEKEDVNEAIRLMEMSKDSLLGEKGQTARTQRPADVIFATIRELVSRGRSVHFSEAEQRCISRGFTPAQFQAALDEYEELNVWQVNTSRTRITFV | not soluble |
| MAHHHHHHMWQHHNLSSPTLGPREAKPTVQTSRRGCMRSDAWCSSLAGGGHDDPSESVPNSRVSPRASSFAPPQRTAPSPTESTSQELFELQNCNHHKQQQKQQLVIRQEDIRDDDFQRLEVLGDGSYSVVVSARHLPTQQLVALKEVSRHRLRELKLEKQLQWEINVHRTLRHPNVVRMLSYYITPQTVVLVLEMCPGGTLLQKLKTMPGGRFDERRASRYVRQAARALTYLHGHGIAHRDLKLENIFLDAHGVARLGDFGWSKALVEPTVEQDLSSHHDNFGTAPCSAAKDVSPLCSGGRGRLTVCGTLDYLSPEMLIGMPHTFKTDVWSLGVMLAEMLTGAPPFYCVSQQDTLNAIREAAPHLGDDVQMSSLARELVLAMLQKNPDARPTMAEVLQHPWTRQNGEKKKKKK | soluble |
| RYPTNNFGNCTGCSATFSVLKKRRSCSNCGNSFCSRCCSFKVPKSSMGATAPEAQRETVFVCASCNQTLSK | soluble |
| MLIHIGIDDTDSPNGMCTTYIGAILYREISKIAEPLDFPRLIRLNPNVPYKTRGNGAVAMSFKIDEEKIKEVKTLVIRYVRELADIDHENTNPGIVFLIGEVPKELEEFSLRALREHVTIEEAEHVARKVNAEVYKFKLGRGIIGGLAAIGYPLEKFTYELLAYRKREYWGTPRRVIKESVFYADKWSYPFTYDNVDPYKRTVLITPHGKDPVLVGIRGIDVGKILQVFEMIKIEEPIEFFQVYKTNQNTDDHLVVKKIKDVKPYDNVVIRGKVAGKYWEKGRHVFFELEDETGKIRVAAFEPTKKFRNYVRKLLPGDEVIIAGGVKEFEGVLTVNLEKFYPVNLVPKVEYEKPRCPKCGGTMKSKGDYLKCKKCGYKMEKILTPVKRPRDLKKKIYEVPPDARKHISRPLVLPGGEDKILEALLEHHHHHH | soluble |
| MGSDKIHHHHHHMSVVDPSLIERIIRDDVRAMGAYHVPDSHGLVKLDAMENPYRLPPALRSELAARLGEVALNRYPVPSSEALRAKLKEVMQVPAGMEVLLGNGSDEIISMLALAAARPGAKVMAPVPGFVMYAMSAQFAGLEFVGVPLRADFTLDRGAMLAAMAEHQPAIVYLAYPNNPTGNLFDAADMEAIVRAAQGSVCRSLVVVDEAYQPFAQESWMSRLTDFGNLLVMRTVSKLGLAGIRLGYVAGDPQWLEQLDKVRPPYNVNVLTEATALFALEHVAVLDEQAAQLRAERSRVAEGMAAHGGVTVFPSAANFLLARVPDAAQTFDRLLARKVLIKNVSKMHPLLANCLRVTVSTPEENAQFLEAFAASLQD | not soluble |
| DVKIEKLKDNLYVYTTYNTFNGTKYAANAVYLVTDKGVVVIDCPWGEDKFKSFTDEIYKKHGKKVIMNIATHSHDDRAGGLEYFGKIGAKTYSTKMTDSILAKENKPRAQYTFDNNKSFKVGKSEFQVYYPGKGHTADNVVVWFPKEKVLVGGCIIKSADSKDLGYIGEAYVNDWTQSVHNIQQKFSGAQYVVAGHDDWKDQRSIQHTLDLINEYQQKQKASN | soluble |
| MKIFVLSIRPEEKAQRTGGACFDILNVPVTRLEPIPVDYTDLIRSGVDCVAFTSSYGVRLFFKNAPVKNFRYFGIGKSTCEEVRKYGYDCEYPEKMDSEGLADMIISHCSGRKVALIRSANANEIVNEKIMGHVDFIDLRNYRAVNTNVDLTPYMAKEECMGIIVTSSMEAKIAMPAIKATGKPVYSIGSVTTKTLEEAGIHPAISGNSDFVDLVEKIKKYLCLV | not soluble |
| MSTLRLLISDSYDPWFNLAVEECIFRQMPATQRVLFLWRNADTVVIGRAQNPWKECNTRRMEEDNVRLARRSSGGGAVFHDLGNTCFTFMAGKPEYDKTISTSIVLNALNALGVSAEASGRNDLVVKTVEGDRKVSGSAYRETKDRGFHHGTLLLNADLSRLANYLNPDKKKLAAKGITSVRSRVTNLTELLPGITHEQVCEAITEAFFAHYGERVEAEIISPNKTPDLPNFAETFARQSSWEWNFGQAPAFSHLLDERFTWGGVELHFDVEKGHITRAQVFTDSLNPAPLEALAGRLQGCLYRADMLQQECEALLVDFPEQEKELRELSAWMAGAVR | soluble |
| MRETHLRSILHTIPDAMIVIDGHGIIQLFSTAAERLFGWSELEAIGQNVNILMPEPDRSRHDSYISRYRTTSDPHIIGIGRIVTGKRRDGTTFPMHLSIGEMQSGGEPYFTGFVRDLTEHQQTQARLQELQ | soluble |
| MGSDKIHHHHHHMHAIGFTDHLPIEDPASLRDVTISKPSAQGHDLLVQVQAVAVNPVDVSVRKTGHEHRMRPKILGWDATGIVTAVGEAVTLFQPGDHVFYAGSFRRPGCDSAYHLVDERLVGHAPATLTTAARAAMPLTSLTAYEALFEQLHIPFDPAKPNSEKCNQTILIINGAGGVGSIATQLAKLAGLTVISSASRPESIAWTQQHGADLVVNHHHDLVSEVHALGIKDVDYILGLSDLDSHWNEICTLIKPGGHIASITENRRPIDLKKLTKKRGTFAWEWMYSKSYYHTADMISQHDILETIADLLDRGLLQSTLSQTLRPINALNLRQAHQLIEQHHMIGKVVIEGWE | not soluble |
| MGSDKIHHHHHHMKFNEFLNNLSNYEPGKDIEVIAKEYGVKEVIKLASNENPFGTPPKAIECLRQNANKAHLYPDDSMIELKSTLAQKYKVQNENIIIGAGSDQVIEFAIHSKLNSKNAFLQAGVTFAMYEIYAKQCGAKCYKTQSITHNLDEFKKLYETHKDEIKLIFLCLPNNPLGECLDASEATEFIKGVNEDCLVVIDAAYNEFASFKDSKKHLEPCELIKEFDNVLYLGTFSKLYGLGGLRIGYGIANANIISAFYKLRAPFNVSNLALKAAVAAMDDDEFTEKTLENNFSQMELYKEFAKKHNIKIIDSYTNFITYFFDEKNSTDLSEKLLKKGIIIRNLKSYGLNAIRITIGTSYENEKFFTEFDKILR | not soluble |
